Assay results: patent publication US20220195057A1 (LANOVA MEDICINES, published 2022)

Legend:
[1] = biological target: human chemokine (C-C motif) receptor 8 (CCR8) protein (human) (UniProt P51685); assay: flow cytometry, low-CCR8-expressing Jurkat cells
[2] = biological target: human chemokine (C-C motif) receptor 8 (CCR8) protein (human) (UniProt P51685); assay: flow cytometry, high-CCR8-expressing U2OS cells
[3] = biological target: T1, human chemokine (C-C motif) receptor 8 (CCR8) protein (human, UniProt P51685 1-355); assay: cell-based or functional assay
[4] = biological target: T1, human chemokine (C-C motif) receptor 8 …; assay: cell binding, CCR8-expressing U2OS cells, curve fit; set-up: LogEC50: unit not given here
[5] = biological target: T1, human chemokine (C-C motif) receptor 8 …; assay: cell binding, CCR8-expressing CHO-K1 cells, curve fit; set-up: LogEC50: unit not given here
[6] = biological target: T1, human chemokine (C-C motif) receptor 8 …; assay: cell binding, CCR8-expressing U2OS cells, curve fit; set-up: LogEC50: unit not given here; remark: listed apart in the source
[7] = biological target: T1, human chemokine (C-C motif) receptor 8 …; assay: cell binding, CCR8-expressing CHO-K1 cells, curve fit; set-up: LogEC50: unit not given here; remark: listed apart in the source

Bottom [6] | LogEC50 [6] | Span [6] | Top [6] | Bottom [7] | LogEC50 [7] | Span [7] | Top [7] | Molecule | further results
– | – | – | – | – | – | – | – | isotype control (antibody) | Max (MFI) [1]: 134 MFI; Max (MFI) [2]: 215 MFI
– | – | – | – | – | – | – | – | LM-108-vc-MMAE (other, vc-MMAE (monomethyl auristatin E) conjugated to the antibody; site and drug number not stated) VH: EVQLVESGGGLVQPGGSLKLSCAASGFTFNTYAMNWVRQASGKGLEWVARIRSKANNYATYYADSVKDRFTISRDDSKNTLYLQMNNLKTEDTAVYYCVRDRSRGEDYAMDYWGQGTLVTVSS VL: DIVMTQSPLSLPVTPGEPASISCRSSKSLLHSNANTYLYWFLQKPGQSPQLLIYRMSNLASGVPDRFSGSGSGTAFTLKISRVEAEDVGVYYCMQHLEYPFTFGQGTKLEIK | cytotoxicity IC50 (Cell-Titer-Glo viability, 96 hours) [3]: 0.528 nM
– | – | – | – | – | – | – | – | 137-xi (antibody, V domains shown, also called 137D1H10; chimeric 137D1H10) VH: EVQLVESGGGLVQPKGSLKLSCTASGFTFNTYAMNWVRQAPGKGLEWVARIRSKANNYATYYADSVKDRFTISRDDSQRILYLQMNNLKAEDTAMYYCVRDRSRGEDYAMDYWGQGTSVTVSS VL: DIVMTQAAPSVPVTPGESVSISCRSSKSLLHSNGNTYLYWFLQRPGQSPQLLIYRMSNLASGVPDRFSGSGSGTAFTLRISRVEAEDVGVYYCMQHLEYPFTFGAGTKLELK | Bottom [4]: 2170; LogEC50 [4]: -0.605; Span [4]: 31300; Top [4]: 33400; Bottom [5]: 3030; LogEC50 [5]: -0.779; Span [5]: 31900; Top [5]: 34900
2760 | -0.724 | 25600 | 28300 | 2490 | -0.639 | 30300 | 32800 | 88-H2L2 (antibody, V domains shown, Humanized 88D2C6) VH: EVQLVESGGGLVQPGGSLKLSCAASGFTFNPNAMNWVRQASGKGLEWVGRIRSKSNNYATYYADSVKDRFTISRDDSKNTAYLQMNNLKTEDTAVYYCVRGKDDGYRHYAMDYWGQGTTVTVSS VL: DIVMTQSPLSLPVTPGEPASISCRSSKSLLHSNANTYLYWFLQKPGQSPQLLIYRMSNLASGVPDRFSGSGSGTAFTLKISRVEAEDVGVYYCMQHLEYPFTFGGGTKVEIK | –
– | – | – | – | – | – | – | – | 137-H2L2 (antibody, V domains shown, Humanized 137D1H10) VH: EVQLVESGGGLVQPGGSLKLSCAASGFTFNTYAMNWVRQASGKGLEWVGRIRSKANNYATYYADSVKDRFTISRDDSKNTAYLQMNNLKTEDTAVYYCVRDRSRGEDYAMDYWGQGTLVTVSS VL: DIVMTQSPLSLPVTPGEPASISCRSSKSLLHSNANTYLYWFLQKPGQSPQLLIYRMSNLASGVPDRFSGSGSGTAFTLKISRVEAEDVGVYYCMQHLEYPFTFGQGTKLEIK | Bottom [4]: 915; LogEC50 [4]: -0.842; Span [4]: 25300; Top [4]: 26300; Bottom [5]: 2550; LogEC50 [5]: -0.789; Span [5]: 26800; Top [5]: 29300
1530 | -0.512 | 24200 | 25800 | 2280 | -0.546 | 29300 | 31600 | 88-H2L3 (antibody, V domains shown, Humanized 88D2C6) VH: EVQLVESGGGLVQPGGSLKLSCAASGFTFNPNAMNWVRQASGKGLEWVGRIRSKSNNYATYYADSVKDRFTISRDDSKNTAYLQMNNLKTEDTAVYYCVRGKDDGYRHYAMDYWGQGTTVTVSS VL: DIVMTQAPLSLPVTPGEPVSISCRSSKSLLHSNANTYLYWFLQKPGQSPQLLIYRMSNLASGVPDRFSGSGSGTAFTLKISRVEAEDVGVYYCMQHLEYPFTFGGGTKLEIK | –
2830 | -0.684 | 24600 | 27400 | 3940 | -0.686 | 28600 | 32500 | 88-H3L2 (antibody, V domains shown, Humanized 88D2C6) VH: EVQLVESGGGLVQPGGSLKLSCAASGFTFNPNAMNWVRQASGKGLEWVARIRSKSNNYATYYADSVKDRFTISRDDSKNTLYLQMNNLKTEDTAVYYCVRGKDDGYRHYAMDYWGQGTTVTVSS VL: DIVMTQSPLSLPVTPGEPASISCRSSKSLLHSNANTYLYWFLQKPGQSPQLLIYRMSNLASGVPDRFSGSGSGTAFTLKISRVEAEDVGVYYCMQHLEYPFTFGGGTKVEIK | –
2110 | -0.678 | 26800 | 28900 | 2670 | -0.751 | 30100 | 32800 | 88-H1L2 (antibody, V domains shown, Humanized 88D2C6) VH: EVQLVESGGGLVQPGGSLKLSCAASGFTFNPNAMNWVRQASGKGLEWVGRIRSKSNNYATYYADSVKDRFTISRDDSKNTAYLQMNSLKTEDTAVYYCTRGKDDGYRHYAMDYWGQGTTVTVSS VL: DIVMTQSPLSLPVTPGEPASISCRSSKSLLHSNANTYLYWFLQKPGQSPQLLIYRMSNLASGVPDRFSGSGSGTAFTLKISRVEAEDVGVYYCMQHLEYPFTFGGGTKVEIK | –
– | – | – | – | – | – | – | – | 137-H2L3 (antibody, V domains shown, Humanized 137D1H10) VH: EVQLVESGGGLVQPGGSLKLSCAASGFTFNTYAMNWVRQASGKGLEWVGRIRSKANNYATYYADSVKDRFTISRDDSKNTAYLQMNNLKTEDTAVYYCVRDRSRGEDYAMDYWGQGTLVTVSS VL: DIVMTQSPLSLPVTPGEPVSISCRSSKSLLHSNANTYLYWFLQKPGQSPQLLIYRMSNLASGVPDRFSGSGSGTAFTLKISRVEAEDVGVYYCMQHLEYPFTFGQGTKLEIK | Bottom [4]: 1320; LogEC50 [4]: -0.484; Span [4]: 25900; Top [4]: 27300; Bottom [5]: 2240; LogEC50 [5]: -0.505; Span [5]: 27900; Top [5]: 30200
– | – | – | – | – | – | – | – | 137-H3L3 (antibody, V domains shown, Humanized 137D1H10) VH: EVQLVESGGGLVQPGGSLKLSCAASGFTFNTYAMNWVRQASGKGLEWVARIRSKANNYATYYADSVKDRFTISRDDSKNTLYLQMNNLKTEDTAVYYCVRDRSRGEDYAMDYWGQGTLVTVSS VL: DIVMTQSPLSLPVTPGEPVSISCRSSKSLLHSNANTYLYWFLQKPGQSPQLLIYRMSNLASGVPDRFSGSGSGTAFTLKISRVEAEDVGVYYCMQHLEYPFTFGQGTKLEIK | Bottom [4]: 2100; LogEC50 [4]: -0.717; Span [4]: 29800; Top [4]: 31900; Bottom [5]: 3820; LogEC50 [5]: -0.754; Span [5]: 29600; Top [5]: 33400
1540 | -0.58 | 26100 | 27600 | 2140 | -0.519 | 29800 | 31900 | 88-H1L3 (antibody, V domains shown, Humanized 88D2C6) VH: EVQLVESGGGLVQPGGSLKLSCAASGFTFNPNAMNWVRQASGKGLEWVGRIRSKSNNYATYYADSVKDRFTISRDDSKNTAYLQMNSLKTEDTAVYYCTRGKDDGYRHYAMDYWGQGTTVTVSS VL: DIVMTQAPLSLPVTPGEPVSISCRSSKSLLHSNANTYLYWFLQKPGQSPQLLIYRMSNLASGVPDRFSGSGSGTAFTLKISRVEAEDVGVYYCMQHLEYPFTFGGGTKLEIK | –
1620 | -0.629 | 25800 | 27400 | 3470 | -0.583 | 28700 | 32200 | 88-H3L3 (antibody, V domains shown, Humanized 88D2C6) VH: EVQLVESGGGLVQPGGSLKLSCAASGFTFNPNAMNWVRQASGKGLEWVARIRSKSNNYATYYADSVKDRFTISRDDSKNTLYLQMNNLKTEDTAVYYCVRGKDDGYRHYAMDYWGQGTTVTVSS VL: DIVMTQAPLSLPVTPGEPVSISCRSSKSLLHSNANTYLYWFLQKPGQSPQLLIYRMSNLASGVPDRFSGSGSGTAFTLKISRVEAEDVGVYYCMQHLEYPFTFGGGTKLEIK | –
– | – | – | – | – | – | – | – | 88D2C6 (fused to human IgG1 constant regions, with ADCC-activating mutations in Fc) (antibody, V domains shown) VH: EVQLVETGGGLVQPKGSLKLSCAASGFTFNPNAMNWVRQAPGKGLEWVARIRSKSNNYATYYADSVKDRFTISRDDSQSMLYLQMNNLKTEDTAMYYCVRGKDDGYRHYAMDYWGQGTSVTVSS VL: DIVMTQAAPSVPVTPGESVSISCRSSKSLLHSNGNTYLYWFLQRPGQSPQLLIYRMSNLASGVPDRFSGSGSGTAFTLRISRVEAEDVGVYYCMQHLEYPFTFGAGTKLELK | ADCC EC50 (CCR8-overexpressing CHO K1 cells) [3]: 0.0174 nM
1030 | -0.692 | 28600 | 29700 | 3630 | -0.655 | 30300 | 33900 | 88-xi (antibody, V domains shown, also called 88D2C6; chimeric 88D2C6) VH: EVQLVETGGGLVQPKGSLKLSCAASGFTFNPNAMNWVRQAPGKGLEWVARIRSKSNNYATYYADSVKDRFTISRDDSQSMLYLQMNNLKTEDTAMYYCVRGKDDGYRHYAMDYWGQGTSVTVSS VL: DIVMTQAAPSVPVTPGESVSISCRSSKSLLHSNGNTYLYWFLQRPGQSPQLLIYRMSNLASGVPDRFSGSGSGTAFTLRISRVEAEDVGVYYCMQHLEYPFTFGAGTKLELK | –
